Source: IntAct's records for PubMed 35512704

B1: Mothers against decapentaplegic homolog 4 (Homo sapiens), Q13485 (parent)
chain: MDNMSITNTPTSNDACLSIVHSLMCHRQGGESETFAKRAIESLVKKLKEKKDELDSLITAITTNGAHPSKCVTIQRTLDGRLQVAGRKGFPHVIYARLWRWPDLHKNELKHVKYCQYAFDLKCDSVCVNPYHYERVVSPGIDLSGLTLQSNAPSSMMVKDEYVHDFEGQPSLSTEGHSIQTIQHPPSNRASTETYSTPALLAPSESNATSTANFPNIPVASTSQPASILGGSHSEGLLQIASGPQPGQQQNGFTGQPATYHHNSTTTWTGSRTAPYTPNLPHHQNGHLQHHPPMPPHPGHYWPVHNELAFQPPISNHPAPEYWCSIAYFEMDVQVGETFKVPSSCPIVTVDGYVDPSGGDRFCLGQLSNVHRTEAIERARLHIGKGVQLECKGEGDVWVRCLSDHAVFVQSYYLDREAGRAPGDAVHKIYPSAYIKVFDLRQCHRQMQQQAATAQAAAAAQAAAVAGNIPGPGSVGGIAPAISLSAAAGIGVDDLRRLCILRMSFVKGWGPDYPRQSIKETPCWIEIHLHRALQLLDEVLHTMPIADPQPLD
partner: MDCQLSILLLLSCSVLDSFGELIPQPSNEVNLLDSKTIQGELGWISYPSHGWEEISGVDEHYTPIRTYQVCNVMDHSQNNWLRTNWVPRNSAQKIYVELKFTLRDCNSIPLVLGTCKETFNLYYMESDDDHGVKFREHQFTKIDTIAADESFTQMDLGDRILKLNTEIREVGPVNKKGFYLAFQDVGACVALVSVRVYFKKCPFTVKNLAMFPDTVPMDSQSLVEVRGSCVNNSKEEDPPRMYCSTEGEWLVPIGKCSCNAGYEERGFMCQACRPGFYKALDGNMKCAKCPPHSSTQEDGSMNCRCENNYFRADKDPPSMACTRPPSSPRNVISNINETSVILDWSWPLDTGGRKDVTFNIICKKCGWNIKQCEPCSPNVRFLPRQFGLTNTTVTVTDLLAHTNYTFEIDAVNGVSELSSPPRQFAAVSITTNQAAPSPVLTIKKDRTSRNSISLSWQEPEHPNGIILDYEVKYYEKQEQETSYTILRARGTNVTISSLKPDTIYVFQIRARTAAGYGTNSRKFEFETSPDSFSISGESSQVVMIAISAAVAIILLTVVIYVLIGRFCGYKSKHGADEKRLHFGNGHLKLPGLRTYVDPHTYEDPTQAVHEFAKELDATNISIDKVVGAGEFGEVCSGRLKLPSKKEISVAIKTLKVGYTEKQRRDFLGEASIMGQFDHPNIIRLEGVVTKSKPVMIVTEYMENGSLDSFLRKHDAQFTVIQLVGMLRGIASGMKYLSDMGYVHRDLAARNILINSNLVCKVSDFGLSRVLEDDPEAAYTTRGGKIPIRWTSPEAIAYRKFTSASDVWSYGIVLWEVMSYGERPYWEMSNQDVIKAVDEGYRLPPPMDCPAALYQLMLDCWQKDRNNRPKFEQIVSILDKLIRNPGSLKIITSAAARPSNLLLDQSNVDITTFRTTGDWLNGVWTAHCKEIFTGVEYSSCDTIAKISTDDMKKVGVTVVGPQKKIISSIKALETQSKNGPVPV
B2: Mothers against decapentaplegic homolog 4 (Homo sapiens), Q13485 (parent)
chain: B1 chain
partner: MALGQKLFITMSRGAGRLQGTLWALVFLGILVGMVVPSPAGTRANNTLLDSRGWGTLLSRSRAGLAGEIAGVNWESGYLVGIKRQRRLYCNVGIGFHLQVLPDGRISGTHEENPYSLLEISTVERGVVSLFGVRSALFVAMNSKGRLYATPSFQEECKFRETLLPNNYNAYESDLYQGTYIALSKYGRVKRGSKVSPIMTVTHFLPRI
B3: Mothers against decapentaplegic homolog 4 (Homo sapiens), Q13485 (parent)
chain: B1 chain
partner: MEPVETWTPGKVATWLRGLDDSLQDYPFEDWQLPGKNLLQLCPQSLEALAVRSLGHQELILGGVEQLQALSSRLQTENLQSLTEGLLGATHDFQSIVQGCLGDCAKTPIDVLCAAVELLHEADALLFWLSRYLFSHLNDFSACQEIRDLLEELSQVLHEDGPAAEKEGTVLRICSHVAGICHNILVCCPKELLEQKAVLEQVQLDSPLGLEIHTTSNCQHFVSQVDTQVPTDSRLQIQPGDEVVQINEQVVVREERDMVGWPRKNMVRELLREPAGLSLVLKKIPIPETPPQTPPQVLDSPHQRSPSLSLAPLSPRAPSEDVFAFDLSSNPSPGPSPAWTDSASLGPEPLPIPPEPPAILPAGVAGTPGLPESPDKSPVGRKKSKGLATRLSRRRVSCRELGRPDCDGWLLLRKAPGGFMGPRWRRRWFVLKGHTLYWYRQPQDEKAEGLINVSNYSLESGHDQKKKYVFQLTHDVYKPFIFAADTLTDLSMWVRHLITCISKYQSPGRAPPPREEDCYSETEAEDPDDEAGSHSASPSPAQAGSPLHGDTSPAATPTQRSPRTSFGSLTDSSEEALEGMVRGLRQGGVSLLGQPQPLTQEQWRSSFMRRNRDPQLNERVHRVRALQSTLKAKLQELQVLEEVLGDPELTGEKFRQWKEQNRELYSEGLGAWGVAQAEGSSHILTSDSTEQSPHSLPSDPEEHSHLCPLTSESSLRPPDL
B4: Mothers against decapentaplegic homolog 4 (Homo sapiens), Q13485 (parent)
chain: B1 chain
partner: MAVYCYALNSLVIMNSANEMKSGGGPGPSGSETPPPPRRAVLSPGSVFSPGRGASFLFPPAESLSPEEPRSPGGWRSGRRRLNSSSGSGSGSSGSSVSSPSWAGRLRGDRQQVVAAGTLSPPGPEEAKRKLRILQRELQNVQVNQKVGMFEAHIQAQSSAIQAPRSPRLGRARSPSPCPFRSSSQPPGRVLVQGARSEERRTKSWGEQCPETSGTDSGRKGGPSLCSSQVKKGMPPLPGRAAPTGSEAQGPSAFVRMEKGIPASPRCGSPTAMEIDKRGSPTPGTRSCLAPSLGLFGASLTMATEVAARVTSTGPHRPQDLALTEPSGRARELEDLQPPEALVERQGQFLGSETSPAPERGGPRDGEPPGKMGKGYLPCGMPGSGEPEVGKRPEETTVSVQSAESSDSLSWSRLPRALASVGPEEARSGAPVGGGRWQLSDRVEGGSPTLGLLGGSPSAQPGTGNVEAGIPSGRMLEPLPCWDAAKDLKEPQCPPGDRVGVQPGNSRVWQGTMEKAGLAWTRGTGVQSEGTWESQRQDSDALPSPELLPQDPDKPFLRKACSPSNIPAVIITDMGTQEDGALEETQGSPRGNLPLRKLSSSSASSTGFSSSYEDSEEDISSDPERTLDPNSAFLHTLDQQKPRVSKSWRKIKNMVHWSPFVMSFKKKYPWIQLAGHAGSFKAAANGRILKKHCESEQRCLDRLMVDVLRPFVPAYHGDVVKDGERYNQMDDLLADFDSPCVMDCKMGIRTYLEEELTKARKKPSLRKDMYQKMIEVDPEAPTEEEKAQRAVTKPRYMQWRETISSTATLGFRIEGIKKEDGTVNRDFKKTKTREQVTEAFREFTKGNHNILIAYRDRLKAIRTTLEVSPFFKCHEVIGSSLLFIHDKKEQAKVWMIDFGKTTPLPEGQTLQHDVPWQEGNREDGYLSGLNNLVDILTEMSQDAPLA

Variants of: B1
Conditions: with epha3_human EPHA3, P29320

| effect of a mutation on the interaction | Variant |
| --- | --- |
| with no effect | G386D |

Variants of: B1
Conditions: with epha3_human EPHA3, P29320
Remark: another data set of the same source

| effect of a mutation on the interaction | Variant |
| --- | --- |
| increasing interaction strength | G386D |

Variants of: B2
Conditions: with fgf6_human FGF6, P10767

| effect of a mutation on the interaction | Variant |
| --- | --- |
| with no effect | G386D |

Variants of: B2
Conditions: with fgf6_human FGF6, P10767
Remark: another data set of the same source

| effect of a mutation on the interaction | Variant |
| --- | --- |
| with no effect | D351H |

Variants of: B2
Conditions: with fgf6_human FGF6, P10767
Remark: another data set of the same source

| effect of a mutation on the interaction | Variant |
| --- | --- |
| with no effect | R361C |

Variants of: B2
Conditions: with fgf6_human FGF6, P10767
Remark: another data set of the same source

| effect of a mutation on the interaction | Variant |
| --- | --- |
| with no effect | R361H |

Variants of: B3
Conditions: with cnkr1_human CNKSR1, Q969H4

| effect of a mutation on the interaction | Variant |
| --- | --- |
| with no effect | G386D |

Variants of: B3
Conditions: with cnkr1_human CNKSR1, Q969H4
Remark: another data set of the same source

| effect of a mutation on the interaction | Variant |
| --- | --- |
| with no effect | R361C |

Variants of: B3
Conditions: with cnkr1_human CNKSR1, Q969H4
Remark: another data set of the same source

| effect of a mutation on the interaction | Variant |
| --- | --- |
| with no effect | R361H |

Variants of: B3
Conditions: with cnkr1_human CNKSR1, Q969H4
Remark: another data set of the same source

| effect of a mutation on the interaction | Variant |
| --- | --- |
| with no effect | D351H |

Variants of: B4
Conditions: with ip3kb_human ITPKB

| effect of a mutation on the interaction | Variant |
| --- | --- |
| with no effect | D351H |

Variants of: B4
Conditions: with ip3kb_human ITPKB
Remark: another data set of the same source

| effect of a mutation on the interaction | Variant |
| --- | --- |
| with no effect | R361C |
